Key:
Assay in all cases: FRET or BRET; BRET saturation in live HEK293T cells; fixed Rluc donor plasmid (10 ng), increasing eYFP acceptor plasmid (0 to 500 ng); coelenterazine H; BRET50 as relative affinity
Settings in all cases: partners not purified
Rluc-Vpr (WT) = molecular target: T1, Rluc-Vpr (WT) (HIV-1, UniProt P05928 1-96)
T1 construct: BRET donor; also called pCDNA3.1-Rluc-Vpr (WT); source: HEK293T, transfected, in live cells; not shown: renilla luciferase (Rluc), N-terminal, kept
T1 sequence: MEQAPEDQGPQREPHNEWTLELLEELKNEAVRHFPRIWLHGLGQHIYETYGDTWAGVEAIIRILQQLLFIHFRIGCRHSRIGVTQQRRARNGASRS

Rluc-Vpr (R80A) = molecular target: T2, Rluc-Vpr (R80A) (HIV-1, UniProt P05928 1-96, R80A)
T2 construct: BRET donor; also called the R80A mutant; pCDNA3.1-Rluc-Vpr (R80A); source: HEK293T, transfected, in live cells; not shown: renilla luciferase (Rluc), N-terminal, kept
T2 sequence: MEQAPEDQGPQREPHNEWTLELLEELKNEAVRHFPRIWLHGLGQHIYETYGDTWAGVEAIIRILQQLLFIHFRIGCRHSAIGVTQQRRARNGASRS

Rluc-Vpr (Q65R) = molecular target: T3, Rluc-Vpr (Q65R) (HIV-1, UniProt P05928 1-96, Q65R)
T3 construct: BRET donor; also called the Q65R mutant; pCDNA3.1-Rluc-Vpr (Q65R); source: HEK293T, transfected, in live cells; not shown: renilla luciferase (Rluc), N-terminal, kept
T3 sequence: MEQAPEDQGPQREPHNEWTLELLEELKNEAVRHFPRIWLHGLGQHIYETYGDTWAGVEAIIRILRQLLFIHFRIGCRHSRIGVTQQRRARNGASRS

B1: eYFP-Vpr (WT) (natural protein)
chain: MEQAPEDQGPQREPHNEWTLELLEELKNEAVRHFPRIWLHGLGQHIYETYGDTWAGVEAIIRILQQLLFIHFRIGCRHSRIGVTQQRRARNGASRS
notes: BRET acceptor; also called wild type eYFP-Vpr; pCDNA3.1-eYFP-Vpr(WT); source: HEK293T, transfected, in live cells; not shown: eYFP, N-terminal, kept
BRET50 (Rluc-Vpr (WT)): 0.397 fluorescence/luminescence | BRET50 (Rluc-Vpr (R80A)): 0.326 fluorescence/luminescence | BRET50 (Rluc-Vpr (Q65R)): 0.791 fluorescence/luminescence

Reference: PMC2932712, “Formation of Mobile Chromatin-Associated Nuclear Foci Containing HIV-1 Vpr and VPRBP Is Critical for the Induction of G2 Cell Cycle Arrest” (PLoS Pathogens, 2010)
